# Laboratory results taken from publication PMC9482650, “Quantitative fragmentomics allow affinity mapping of interactomes” (Nature Communications, 2022).
# Legend:
# Experiment in all cases: holdup assay
# Parameters in all cases: key: below the threshold = too weak to quantify, mostly under pKd 3.1 to 4
# [1] = target: MAGI2_2, Q86UL8
# [2] = target: FRMPD2_3, Q68DX3
# [3] = target: T1, SIPA1L2, Q9P2F8
# T1 sequence (Q9P2F8 945-1036, limits assumed, looked up): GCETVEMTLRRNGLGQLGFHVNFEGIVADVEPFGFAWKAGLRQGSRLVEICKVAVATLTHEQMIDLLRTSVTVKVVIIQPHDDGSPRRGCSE
# [4] = target: T2, DFNB31_3, Q9P202
# T2 sequence (Q9P202 811-907, limits assumed, looked up): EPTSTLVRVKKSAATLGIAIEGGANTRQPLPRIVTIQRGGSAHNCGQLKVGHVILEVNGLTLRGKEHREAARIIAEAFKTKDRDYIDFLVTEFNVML
# [5] = target: T3, MPDZ_5, O75970
# T3 sequence (O75970 695-796, limits assumed, looked up): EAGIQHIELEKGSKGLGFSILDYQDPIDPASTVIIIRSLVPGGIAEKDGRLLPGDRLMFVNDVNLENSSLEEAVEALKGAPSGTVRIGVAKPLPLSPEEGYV
# [6] = target: T4, MPP6, Q9NZW5
# T4 sequence (Q9NZW5 125-219, limits assumed, looked up): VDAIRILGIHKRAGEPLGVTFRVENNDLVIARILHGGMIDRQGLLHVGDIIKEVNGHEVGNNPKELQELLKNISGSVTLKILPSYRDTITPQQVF
# [7] = target: DLG1_1, Q12959
# [8] = target: DLG2_3, Q15700
# [9] = target: T5, DFNB31_2, Q9P202
# T5 sequence (Q9P202 274-371, limits assumed, looked up): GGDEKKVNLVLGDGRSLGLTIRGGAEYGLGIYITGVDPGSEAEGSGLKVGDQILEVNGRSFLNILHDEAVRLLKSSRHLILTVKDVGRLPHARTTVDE
# [10] = target: T6, PDZD2_2, O15018
# T6 sequence (O15018 329-429, limits assumed, looked up): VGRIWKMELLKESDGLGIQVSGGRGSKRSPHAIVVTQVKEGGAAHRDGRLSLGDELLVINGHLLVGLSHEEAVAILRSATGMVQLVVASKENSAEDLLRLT
# [11] = target: T7, CARD11, Q9BXL7
# T7 sequence (Q9BXL7 662-765, limits assumed, looked up): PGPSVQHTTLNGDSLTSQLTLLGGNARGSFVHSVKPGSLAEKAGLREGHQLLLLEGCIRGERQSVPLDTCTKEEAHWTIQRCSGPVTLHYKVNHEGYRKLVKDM
# [12] = target: GRID2IP_2, A4D2P6
# [13] = target: T8, PCLO, Q9Y6V0
# T8 sequence (Q9Y6V0 4491-4600, limits assumed, looked up): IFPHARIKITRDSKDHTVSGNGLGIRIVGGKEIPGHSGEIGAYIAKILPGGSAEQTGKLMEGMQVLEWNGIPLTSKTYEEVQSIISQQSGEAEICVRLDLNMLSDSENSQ
# [14] = target: GRASP, Q7Z6J2
# [15] = target: T9, NHERF3_4, Q5T2W1
# T9 sequence (Q5T2W1 373-468, limits assumed, looked up): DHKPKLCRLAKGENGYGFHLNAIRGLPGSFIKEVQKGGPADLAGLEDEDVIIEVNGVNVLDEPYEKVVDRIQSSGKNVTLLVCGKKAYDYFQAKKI
# [16] = target: T10, SNTA1, Q13424
# T10 sequence (Q13424 82-180, limits assumed, looked up): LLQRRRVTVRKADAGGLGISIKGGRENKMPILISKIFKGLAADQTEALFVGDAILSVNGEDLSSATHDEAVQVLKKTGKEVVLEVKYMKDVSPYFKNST
# [17] = target: MAST1, Q9Y2H9
# [18] = target: T11, LIN7A, O14910
# T11 sequence (O14910 103-200, limits assumed, looked up): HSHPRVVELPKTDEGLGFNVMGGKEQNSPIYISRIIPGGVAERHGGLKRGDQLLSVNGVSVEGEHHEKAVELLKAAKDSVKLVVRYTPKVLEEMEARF
# [19] = target: GRIP2_6, Q9C0E4
# [20] = target: T12, NHERF3_1, Q5T2W1
# T12 sequence (Q5T2W1 4-100, limits assumed, looked up): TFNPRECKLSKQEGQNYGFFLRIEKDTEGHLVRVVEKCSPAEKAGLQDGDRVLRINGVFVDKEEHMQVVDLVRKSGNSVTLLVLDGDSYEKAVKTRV
# [21] = target: NHERF2_2, Q15599
# [22] = target: DLG1_2, Q12959
# [23] = target: FRMPD2_2, Q68DX3
# [24] = target: IL16_3, Q14005
# [25] = target: GRIP2_5, Q9C0E4
# [26] = target: GIPC2, Q8TF65
# [27] = plain residues with an end cap or a label only (N-terminal biotin on a linker: ado-ado)
# [28] = modified: phospho on T at position -2 from the C-terminal residue
# Chain of NHERF2_2, Q15599 (Q15599 142-238): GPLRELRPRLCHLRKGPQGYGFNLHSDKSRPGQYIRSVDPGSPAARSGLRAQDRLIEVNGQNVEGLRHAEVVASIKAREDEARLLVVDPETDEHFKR
# Chain of GRASP, Q7Z6J2 (Q7Z6J2 96-193): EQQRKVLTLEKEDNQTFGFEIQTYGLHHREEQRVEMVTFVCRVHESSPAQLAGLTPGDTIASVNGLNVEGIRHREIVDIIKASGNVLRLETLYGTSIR
# Chain of FRMPD2_3, Q68DX3 (Q68DX3 1073-1166): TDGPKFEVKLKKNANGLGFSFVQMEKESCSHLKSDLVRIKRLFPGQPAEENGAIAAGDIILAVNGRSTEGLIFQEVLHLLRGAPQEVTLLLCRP
# Chain of MAST1, Q9Y2H9 (Q9Y2H9 962-1065): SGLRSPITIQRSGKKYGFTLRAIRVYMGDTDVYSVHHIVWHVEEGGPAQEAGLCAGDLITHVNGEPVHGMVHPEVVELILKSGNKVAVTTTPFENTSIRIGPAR
# Chain of IL16_3, Q14005 (Q14005 1107-1207): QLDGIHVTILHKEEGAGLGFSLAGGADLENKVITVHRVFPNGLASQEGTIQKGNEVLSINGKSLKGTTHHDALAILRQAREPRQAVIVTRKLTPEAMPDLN
# Chain of GRID2IP_2, A4D2P6 (A4D2P6 272-370): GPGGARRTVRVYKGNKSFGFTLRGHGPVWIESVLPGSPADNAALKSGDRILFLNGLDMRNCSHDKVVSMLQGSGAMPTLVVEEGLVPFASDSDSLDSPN
# Chain of GRIP2_6, Q9C0E4 (Q9C0E4 648-740): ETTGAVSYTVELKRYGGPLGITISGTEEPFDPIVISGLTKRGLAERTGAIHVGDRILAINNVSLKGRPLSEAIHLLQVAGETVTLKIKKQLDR
# Chain of FRMPD2_2, Q68DX3 (Q68DX3 944-1038): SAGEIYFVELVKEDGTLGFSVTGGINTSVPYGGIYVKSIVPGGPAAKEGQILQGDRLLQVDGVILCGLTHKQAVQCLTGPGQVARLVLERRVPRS
# Chain of GRIP2_5, Q9C0E4 (Q9C0E4 544-642): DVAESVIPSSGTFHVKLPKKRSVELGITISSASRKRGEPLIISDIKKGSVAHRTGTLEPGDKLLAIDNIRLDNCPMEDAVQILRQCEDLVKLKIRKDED
# Chain of GIPC2, Q8TF65 (Q8TF65 112-203): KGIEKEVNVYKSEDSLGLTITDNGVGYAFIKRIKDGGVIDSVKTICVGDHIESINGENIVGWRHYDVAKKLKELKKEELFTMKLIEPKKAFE
# Chain of MAGI2_2, Q86UL8 (Q86UL8 410-522): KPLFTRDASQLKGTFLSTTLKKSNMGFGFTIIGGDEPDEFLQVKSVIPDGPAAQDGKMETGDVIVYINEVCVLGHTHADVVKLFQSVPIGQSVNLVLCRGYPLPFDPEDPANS
binder,measurement,setting,value
"GQEEQVTTRL [TRPC5, Q9UL62]",pKd,[1]; [27],below the threshold
same,pKd,[2]; [27],below the threshold
same,pKd,[3]; [27],below the threshold
same,pKd,[4]; [27],3.8
same,pKd,[5]; [27],below the threshold
same,pKd,[6]; [27],below the threshold
same,pKd,[7]; [27],below the threshold
same,pKd,[8]; [27],below the threshold
same,pKd,[9]; [27],below the threshold
same,pKd,[10]; [27],below the threshold
same,pKd,[11]; [27],below the threshold
same,pKd,[12]; [27],4.44
same,pKd,[13]; [27],below the threshold
same,pKd,[14]; [27],4.63
same,pKd,[15]; [27],5.33
same,pKd,[16]; [27],3.91
same,pKd,[17]; [27],4.8
same,pKd,[18]; [27],below the threshold
same,pKd,[19]; [27],below the threshold
same,pKd,[20]; [27],5.17
same,pKd,[21]; [27],4.71
same,pKd,[22]; [27],below the threshold
same,pKd,[23]; [27],below the threshold
same,pKd,[24]; [27],below the threshold
same,pKd,[25]; [27],below the threshold
same,pKd,[26]; [27],below the threshold
"RLQRRRETQV [HPV18-E6_-2P, P06463]",pKd,[1]; [28],below the threshold
same,pKd,[2]; [28],below the threshold
same,pKd,[3]; [28],below the threshold
same,pKd,[4]; [28],3.9
same,pKd,[5]; [28],below the threshold
same,pKd,[6]; [28],3.57
same,pKd,[7]; [28],below the threshold
same,pKd,[8]; [28],3.88
same,pKd,[9]; [28],below the threshold
same,pKd,[10]; [28],below the threshold
same,pKd,[11]; [28],below the threshold
same,pKd,[12]; [28],below the threshold
same,pKd,[13]; [28],below the threshold
same,pKd,[14]; [28],below the threshold
same,pKd,[15]; [28],below the threshold
same,pKd,[16]; [28],below the threshold
same,pKd,[17]; [28],below the threshold
same,pKd,[18]; [28],below the threshold
same,pKd,[19]; [28],below the threshold
same,pKd,[20]; [28],below the threshold
same,pKd,[21]; [28],below the threshold
same,pKd,[22]; [28],below the threshold
same,pKd,[23]; [28],below the threshold
same,pKd,[24]; [28],below the threshold
same,pKd,[25]; [28],below the threshold
same,pKd,[26]; [28],below the threshold
"QPCFNKLFPL [LPXN, O60711]",pKd,[1]; [27],below the threshold
same,pKd,[2]; [27],below the threshold
same,pKd,[3]; [27],below the threshold
same,pKd,[4]; [27],below the threshold
same,pKd,[5]; [27],below the threshold
same,pKd,[6]; [27],below the threshold
same,pKd,[7]; [27],below the threshold
same,pKd,[8]; [27],below the threshold
same,pKd,[9]; [27],below the threshold
same,pKd,[10]; [27],below the threshold
same,pKd,[11]; [27],below the threshold
same,pKd,[12]; [27],below the threshold
same,pKd,[13]; [27],below the threshold
same,pKd,[14]; [27],below the threshold
same,pKd,[15]; [27],3.73
same,pKd,[16]; [27],below the threshold
same,pKd,[17]; [27],4.33
same,pKd,[18]; [27],below the threshold
same,pKd,[19]; [27],below the threshold
same,pKd,[20]; [27],4.01
same,pKd,[21]; [27],below the threshold
same,pKd,[22]; [27],below the threshold
same,pKd,[23]; [27],below the threshold
same,pKd,[24]; [27],below the threshold
same,pKd,[25]; [27],below the threshold
same,pKd,[26]; [27],below the threshold
"SSALYGESDL [ACTN2, P35609]",pKd,[1]; [27],below the threshold
same,pKd,[2]; [27],below the threshold
same,pKd,[3]; [27],below the threshold
same,pKd,[4]; [27],3.64
same,pKd,[5]; [27],below the threshold
same,pKd,[6]; [27],below the threshold
same,pKd,[7]; [27],below the threshold
same,pKd,[8]; [27],3.94
same,pKd,[9]; [27],below the threshold
same,pKd,[10]; [27],below the threshold
same,pKd,[11]; [27],below the threshold
same,pKd,[12]; [27],below the threshold
same,pKd,[13]; [27],below the threshold
same,pKd,[14]; [27],3.93
same,pKd,[15]; [27],below the threshold
same,pKd,[16]; [27],3.59
same,pKd,[17]; [27],4.18
same,pKd,[18]; [27],below the threshold
same,pKd,[19]; [27],below the threshold
same,pKd,[20]; [27],3.57
same,pKd,[21]; [27],4.35
same,pKd,[22]; [27],below the threshold
same,pKd,[23]; [27],below the threshold
same,pKd,[24]; [27],below the threshold
same,pKd,[25]; [27],below the threshold
same,pKd,[26]; [27],4.09
"PRISRSQSEL [CCDC134, Q9H6E4]",pKd,[1]; [27],3.85
same,pKd,[2]; [27],below the threshold
same,pKd,[3]; [27],below the threshold
same,pKd,[4]; [27],3.48
same,pKd,[5]; [27],below the threshold
same,pKd,[6]; [27],below the threshold
same,pKd,[7]; [27],below the threshold
same,pKd,[8]; [27],3.63
same,pKd,[9]; [27],below the threshold
same,pKd,[10]; [27],3.66
same,pKd,[11]; [27],below the threshold
same,pKd,[12]; [27],3.61
same,pKd,[13]; [27],below the threshold
same,pKd,[14]; [27],4.31
same,pKd,[15]; [27],below the threshold
same,pKd,[16]; [27],below the threshold
same,pKd,[17]; [27],4.74
same,pKd,[18]; [27],3.52
same,pKd,[19]; [27],below the threshold
same,pKd,[20]; [27],4.42
same,pKd,[21]; [27],below the threshold
same,pKd,[22]; [27],below the threshold
same,pKd,[23]; [27],below the threshold
same,pKd,[24]; [27],below the threshold
same,pKd,[25]; [27],below the threshold
same,pKd,[26]; [27],below the threshold
